Variants at the floor of the assay were thinned out.
B1: TPR 5TU (parent)
chain: GGAUCUUCUCGAUCUAACAAAAAAGACAAAUCUGCCACAAAGCUUGAGAGCAUCUUCGGAUGCAGAGGCGGCAGCCUUCGGUGGCGCGAUAGCGCCAACGUUCUCAACUAUGACACGCAAAACGCGUGCUCCGUUGAAUGGAGUUUAUCAUG

Variants of: B1
Test: polymerase ribozyme fitness, log enrichment relative to wild type (log ratio); higher = more active; in vitro selection for triplet polymerase activity
Procedure, shortened: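 After PCR construction and transcription, each subunit's mutant library from a heterodimeric triplet polymerase ribozyme was annealed with a biotinylated primer, the partner subunit and triplets. Incubation was frozen, at −7 °C, and extended constructs were gel-excised, bound to streptavidin beads and amplified by RT-PCR, in one selection round done in triplicate. Fitness is the logarithm of a genotype's enrichment divided by that of the wild type, from inverse-variance-weighted replicate averages of Illumina-sequenced inputs and outputs. The base of the logarithm is 2, and genotypes needed ≥10 input reads and ≥1 read per output.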

| Variant | polymerase ribozyme fitness (log ratio) |
| --- | --- |
| A12C A21C A23C G136A | ≤ -4.2 |
| G11U C38A A40C U53A G58A | -3.76 |
| A12C A21G C36A G48A C93A U135G | ≤ -4.2 |
| A12G A41C A66G C79U G86C C103A C105A A107G | ≤ -4.2 |
| G11A U13C C36U A49U A60U | -4.19 |
| A12G C85U C129A U151C | ≤ -4.2 |
| C10U A52U A60C G88U | ≤ -4.2 |
| G11A C27G U53A G83U G86A G140A | ≤ -4.2 |
| C10G C14U A28U U53A A122C | ≤ -4.2 |
| G11A C96U | -1.9 |
| G11C C38U C76U U78G A97G G124U | ≤ -4.2 |
| A12G G92C A107G G133U | ≤ -4.2 |
| C10U A19U A21U C32G G42A G80C A137U | ≤ -4.2 |
| G11U C32A G50A C116U A121U C132U U144G | ≤ -4.2 |
| C10G A26C C76A G83A | ≤ -4.2 |
| G11A G86A | -2.24 |
| A12C A52C C54U C96A | -3.95 |
| G11A A26U G48A U109C A147G | ≤ -4.2 |
| A12G G88C | -3.71 |
| G11C A49C U53G G141A | ≤ -4.2 |
| G11U G84A U90C A119G C125A | ≤ -4.2 |

| Variant | polymerase ribozyme fitness (log ratio) |
| --- | --- |
| A12C A16G A39U A91C G141C U148G | ≤ -4.2 |
| C10G C93U | -3.86 |
| A12C G58A G84U A115U | -3.83 |
| A12C G92C | -0.73 |
| C10G C69G | -4.16 |
| C10G A29C A30U G48U U55A A89U C93G G128U | ≤ -4.2 |
| C10U C27G C54U G92C C114G | ≤ -4.2 |
| C10U A28U A52G U56A A73C C93U U145C C149G | ≤ -4.2 |
| A12G A37G C54A C57U G71A A115G | ≤ -4.2 |
| A12G C27A U31G C35G C85A A97C C99G C149A | ≤ -4.2 |
| A12G G59A A73G A91G | -2.71 |
| A12C G25U U55A U56C G83C | ≤ -4.2 |
| G11U A16C A24G G58C C87A C99U | ≤ -4.2 |
| A12C A16C U31C C32G U53A C93G C118G U151C | ≤ -4.2 |
| G11A G46U G92A C118U | ≤ -4.2 |
| C10U A22U A29G U61A C95G | -4 |
| C10U G94A | -2.69 |
| A12C A52G G68U A98U | -4.19 |
| C10U U45G A60C C85U | ≤ -4.2 |
| C10G U144C | -3.87 |
| G11U U61A C87U | -3.78 |

| Variant | polymerase ribozyme fitness (log ratio) |
| --- | --- |
| A12C A37C U53C G86U A97G A113U | ≤ -4.2 |
| C10U A29G A47C U55G A60U C95U U144A U146G | ≤ -4.2 |
| C10U U135A G141A C149G | ≤ -4.2 |
| C10U G42C A49C A66G C79G A91G C125A A147G A150C | ≤ -4.2 |
| C10U A22G U44A G100U C103A | ≤ -4.2 |
| A12G A21C A23G C76G C116G G133A | ≤ -4.2 |
| G11A A73G G92A A121G | ≤ -4.2 |
| C10U A20U C57A U145C | -3.45 |
| G11C U15G A40C C87A U148G | ≤ -4.2 |
| A12G U78G A89G C95U U109C U145C A150G | ≤ -4.2 |
| A12G C27U G46U C57A C85G A122C | -3.63 |
| G11A G34C U56A C57U C99G A142C | ≤ -4.2 |
| A12C A16U U145G | -2.26 |
| A12G C35U U55G C87G A115U | -4.17 |
| A12G A29C C35G C95A C118A G133C | ≤ -4.2 |
| C10G A97U U130G | ≤ -4.2 |
| C10G A29U G34U C38A C87G G88A A122U G136C | ≤ -4.2 |
| G11A A21U C87A | ≤ -4.2 |
| A12U A17G A23G C35U G83A C87G G136U | ≤ -4.2 |
| G11U G42U G68A G86U C95G A137C | ≤ -4.2 |
| A12G A16U C54U A73G G83U G84C C95G G140C | ≤ -4.2 |

| Variant | polymerase ribozyme fitness (log ratio) |
| --- | --- |
| A12G A39C G84A A138C G143U U148C | ≤ -4.2 |
| G11U C14G A26G U33G C57A C99G A120G | ≤ -4.2 |
| A12G G70A C85U C105G C116A | ≤ -4.2 |
| G11A A89G G94A C105G G112C | ≤ -4.2 |
| G11C C85U A119G | -2.02 |
| G11C U55A C76G G140U | ≤ -4.2 |
| C10U A40G | -4.12 |
| A12G U56G C96U A120U | -0.669 |
| G11U G84A | -0.536 |
| G11U G42C G68A C85U G128U C132G U139G U148A | ≤ -4.2 |
| A12C U13C A26C C27G G70A C96G | ≤ -4.2 |
| A12G A89C C96G | -1.66 |
| A12C C43U A52C G84U C93G C132G | ≤ -4.2 |
| G11C A23C G58A G81C C87A A138U | ≤ -4.2 |
| C10G C57G G92C A113C G133A | ≤ -4.2 |
| A12G U53A | -0.69 |
| A12G G48A G71A G86A G126U C131A G140U C149A A150G | ≤ -4.2 |
| C10U G25C G80A C87G | ≤ -4.2 |
| A12G G25A C87G C116A U148G | ≤ -4.2 |
| G11U A12G U15A G58C G94U U151G | ≤ -4.2 |
| C10U A22G A49G A142C | ≤ -4.2 |

From the RNAGym collection of RNA variant scans (doi:10.1073/pnas.2313332121)
